The values below are quoted from earlier work in article PMC7550652.

The target in the data set is Calmodulin (Homo sapiens) (UniProt P0DP23).

With ERα (from UniProt P03372), the Kd was 0.16 nM.

Broadly, the Kd is the concentration at which binding is half-saturated.
